The source of these data is the DeepSol protein solubility set.

The series in a line: soluble on expression in E. coli; label from the status in PepcDB or PDB records.
For “MTIKTTMGILAGKASHFVLSKLGRGSTLPGKIALKFDKDILDTLAKDYEIVVVTGTNGKTLTTALTVGILKEAYGEIVTNPSGANMITGITSTFLTAKRAKSGKKIAVLEIDEASLPKITEYITPSLFVFTNIFRDQMDRYGEIYTTYQMILDGAAKAPAATILANGDSPLFNSKELVNPVRFYGFDTEKHAPELTHYNTEGIVCPKCESILQYHLNTYANLGDYVCLNCDFHRPELDYKLTQLTKITNTTSEFIIDGQDYKINVGGLYNIYNALAAVSVAEFFGVVPEQIKAGFDKSRAIFGRQETFKIGDKSCTLVLIKNPVGASQALDMIKLADYPFSLSVLLNANYADGIDTSWIWDANFESILDMDIPEINAGGVRHSEIARRLRVTGYPEDKITQAEKLEDIMTLIEKQDCDHAYILATYTAMLEFRDILAQRHAVGKGMN”, the “soluble on expression in E. coli” value is listed as “not soluble”.

“MKAAVVEQFKEPLKIKEVEKPTISYGEVLVRIKACGVCHTDLHAAHGDWPVKPKLPLIPGHEGVGIVEEVGPGVTHLKVGDRVGIPWLYSACGHCDYCLSGQETLCEHQKNAGYSVDGGYAEYCRAAADYVVKIPDNLSFEEAAPIFCAGVTTYKALKVTGAKPGEWVAIYGIGGLGHVAVQYAKAMGLNVVAVDIGDEKLELAKELGADLVVNPLKEDAAKFMKEKVGGVHAAVVTAVSKPAFQSAYNSIRRGGACVLVGLPPEEMPIPIFDTVLNGIKIIGSIVGTRKDLQEALQFAAEGKVKTIIEVQPLEKINEVFDRMLKGQINGRVVLTLEDK”: the “soluble on expression in E. coli” value was “soluble”.

Consider “GQSGPLPKPSLQALPSSLVPLEKPVTLRCQGPPGVDLYRLEKLSSSRYQDQAVLFIPAMKRSLAGRYRCSYQNGSLWSLPSDQLELVATGVFAKPSLSAQPGPAVSSGGDVTLQCQTRYGFDQFALYKEGDPAPYKNPERWYRASFPIITVTAAHSGTYRCYSFSSRDPYLWSAPSDPLELVVT”, for which the “soluble on expression in E. coli” value was “soluble”.

Turning to “MGSDKIHHHHHHMSGPGTYSPPSSRLQYLGCCAGVAGARLVPGPLGGRFPFSNCVLVEDAGFKVLVDTGCEPWERGLVDVDVVVFTHFHPDHIRGFHRLRAGRVAAPEGEEPYAGRLERLALRFAGERWREWISMARLVMDLEGVPEPGEYFRPGEDLCFRGVCIKTYPARGHLQTHTLLELPGGLVHLVDIDLTGFGPWYGNPEASPELFLLDIEAAAEMEARGYLSAHKDRVYSRGEGVEALARFAGRLVEQAEGVYKALEAAGRPLWPWELTGRGIIYRRYLEGMEAIMSYFEGVMIEKLLGLLGLWGCTRKTPGGYVARDCHLGVIKDRITRNILSLA”, the “soluble on expression in E. coli” value was “not soluble”.

In the case of “MAHHHHHHMYVRSISKELTKRMYNPSGHRIMMMDLKNKTTNNILNSRRYIVSYTKVHRTHYLEDYYTNPEIATNMISPMSEYIWWSWLLLQVN”, the “soluble on expression in E. coli” value is “not soluble”.

In the case of “GPGSMMRCGNGSGPAAPSAASPRSHEGCLPHWMECSSASSSFVEDRVRCLVHPVGVTSLLPAPLQRILANVLRILQQERAQLKGQRPCRRHSRSLGTGVDAEVTECIVDAAQAPSLAAAADIFSAFVAAHPMDGLALLSSPVALVGAALAEVVTLGQVESCVIPMPELLSFLDAAISVGHPGAMHSVAICLREGTAGLQRDVTSSETWLRCAASSGYLPAMHELGETYERGAPASSKLPAGAAEDAADWGEAMQWYRRAAEAGYPPSQLNLGKLLLAASEHAQSAGSAAAPQVAHLFTEAKRWLHACAATGVEEAVRLVKRIEEQGAR”, the “soluble on expression in E. coli” value is “soluble”.

As to “MKDDIKRRIDLAAGRKRSQLVLKNAQILNVFSHEIISGDIAIDQGKIVGIGNYNGLENIDLEGKVVVPGLIDGHVHMESAMVTPGQFARAIVPRGTTTIVADPHEIANVCGIPGIEYMLKASEGMPLNVYMMLPSCVPATSFENAGANLKAKDLAPLINHEKVLGLGELMDYPGVIAGEESIIDKIMIAEGKMIDGHGPDIKEEALNAYVAAGVRTEHECSTVEEMINRLRLGMYILIREGSAARNLKTLVRGITPENMRRCLFCTDDKHPEDILEAGHIDHNVRVAIKEGLDPISAVKMATINAAECYGLKDLGAIAPGYRADLVVLDNLETFHVTKVFKDGKLVAQDGKAFFEAQSTEDHTVTQTVNAKELTPEDLVLSLETDIVNVIKLLPHSLVTQRVSRKVEVKEGTFRYHEDLDILKLAVIERHKRTGNIGLGLVEDFRLKGGAIASTVAHDSHNIIVIGDNDEDMLLAVNELNTVGGGITICSKGEILQTLSLPIAGLMAQGTMEEVNEQLKQMLEIAYKKLGINEQIDPFMTLSFLALPVIPELKLTDLGLFDVKNFRFISLNR”, the “soluble on expression in E. coli” value is “not soluble”.

For the sequence “MGSDKIHHHHHHMRIGVAGVGKLGEFHTNLLKQIAAEASDVEFSGVFDLNPERLQEIGKKYGVACFSTLEELAASCDAAVIATTTSSHYAIARQLLEARLHLFIEKPITATLEEADKLIRIEQEKGLTIQVGHIERFNPALLAVEPYIGEPMYIQAERLSGFSRRVTDVSVVLDLMIHDIDLVLSLIKSDIRSIAASGVKVFSNELDMATARIEFENGAIANVTASRLSRSKLRKMRFFTRNPKSYASLDFTSGKSEVFRLVPPDQLSSKNPIKNFATKKILEQFGEIQESLKEMALDYVSPDVPKINALKEELEQFIDAIRKGKPAKVTSEEGRRALMVAGKITDEIRNNTADLD”, the “soluble on expression in E. coli” value is on record as “not soluble”.

For the sequence “MIHEASIQHGSFGKMVADWPQEKITELWAYLKKHGSRLGGNTGPYTLRQMGADTFILSNDVEAYLRNCKIIEGGKDTKKSHDAATQAFMQWQKESGRSLTEISQIIAFSTGDNRL”, the “soluble on expression in E. coli” value is listed as “not soluble”.

On to “MSLAQVEQVIQVGHLLDVRTGNYQKNKAILVEAGRISAIVDADQAPKNVQVIDLSTHYVVPGLIDMHVHLTSDPQKHGYRGLVETPTREAIFGVSAAKATLKAGFTTVRNLGAAGFADVSLRDAIDDGEIQGPRMRVAANTICITGGHCDNNLLPHIYNSRSAGVANGPDEVRAKVRENIKYGADVIKFAATGGVLSKNTDVNASQYNFEEMKALIDEAHDRGRIVAAHAHGLQGIKRAIEAGVDSIEHGSFIDDDAIKLAKKHGTYLVMDVYVSDYILSEGEKAGILPESLAKEKKVGLLQRQNFQKAVKAGVKMAYGTDAGVYTHGLNGRQFAYMVQWGMTPLQAIQAATVNAGTLLNWKNEQGQQNVGVLEVGAFADLVAVPVDPLTQEGHHHHHH”, for which the “soluble on expression in E. coli” value is “soluble”.

Regarding “MGSDKIHHHHHHMVTTRKPLRAAIIGLGRLGERHARHLVNKIQGVKLVAACALDSNQLEWAKNELGVETTYTNYKDMIDTENIDAIFIVAPTPFHPEMTIYAMNAGLNVFCEKPLGLDFNEVDEMAKVIKSHPNQIFQSGFMRRYDDSYRYAKKIVDNGDIGKIIYMRGYGIDPISGMESFTKFATEADSGGIFVDMNIHDIDLIRWFTGQDPVQAYGLTSNIAAPQLADIGEFETGVAQLKMSDGVIATLIGGRHAAHGNQVELEVMGSNGWVRIGEHPDLNRVTVFNDQGVVRPSLQSFGERFDTAFTDEVQDFVNNVIVGKQPEVTVDDGIKALKIAKACQQSANIGKLVDIQL”, the “soluble on expression in E. coli” value is “not soluble”.

In the case of “GMKNVTKASIDDLDSIVHIDIDVIGNDSRRNYIKHSIDEGRCVIVKEDNSISGFLTYDTNFFDCTFLSLIIVSPTKRRRGYASSLLSYMLSHSPTQKIFSSTNESNESMQKVFNANGFIRSGIVENLDEGDPEIIFYTKKLRA”, the “soluble on expression in E. coli” value is “soluble”.

Take “EKPAMEYHWEEVFPELDSKNPMDRREMEQRREYLREKAKEAAAYAERPSSVRLASASLGTQPQEQPKPATPFQSQLTGILPEEQIQRLSEGIDKLAEAGEQLARIGRTAAAMTESYEQMQADQEGLRLNSQSYIQQMESLSRNISGLNTIYEIQLKGISSQIDTIDRINRGLAHIRDMYDNSVIDSSSFRNENERMARQLTQLNEVYARLLQALTTNVGLPGMPGNFGASNPSSSGSSPL”: the “soluble on expression in E. coli” value was “not soluble”.

In the case of “MLGDVYHLFSGGKDSSLAAWILRKLGYEVRLVTITFGVLDNWKYAKETADILGFEHEVVRLPRELLNMAVEMCIEDGKPGRAIQFLHEKALEYVASRSYVKRISDGTRRDDKVPFLDLRKARSLEDRFNVAYIRPLLGLGYKTIRELANSIFVIEERESEKLEKGDYEAELRYMLRERGINPKTIFPSRHMQSRVVGIKDDELGRS”, the “soluble on expression in E. coli” value is listed as “soluble”.

In the case of “MIAEQHQAVVDSGASKKGAKVGFVSLGCPKNLVDSERILTQLRTEGYDVTNSYDDAELVIVNTCGFIDSAVQESLDTIGEALAANGKVLVTGCLGVKKDEIIELHPNVLGVTGPHAYDEVLAQVHEHVAKPEHNPFIDLVPPQGVKLTPKHYAYLKISEGCNHRCTFCIIPSMRGDLDSRPVGDVLGEAKRLVDSGVKELLVISQDTSAYGVDVKHKTDFWDGMPVKTHMQQLCEELAKQGVWIRLHYVYPYPHVDKIIPLMAEGKILPYLDIPFQHANKRILKLMKRPGSSDRVLERIAKWREICPELVIRSTFIVGFPGETEEEFEELLNFLEEAQLDRVGCFKYSPVEGATANALPDHVSDEVMEDRLQRFMAVQAKISSDKLQVRIGQEYLILVDEVNGLGIVGRSYMDAPEVDGKVYLSDDYDAKPGDQIWVQIIHADEHDVWGVRVED”, the “soluble on expression in E. coli” value was “soluble”.

With “MLINKTKRAEQNLNNLPFLALQAEQIEFLGSSAEFKTQIIELIRNAKKRIYVTALYWQKDEAGQEILDEIYRVKQENPHLDVKVLIDWHRAQRNLLGAEKSATNADWYCEQRQTYQLPDDPNMFFGVPINTREVFGVLHVKGFVFDDTVLYSGASINNVYLHQFEKYRYDRYQKITHAELADSMVNFINDYLLDFSAVYPLDVTNRPRTKEIRGNIRAYRKDLAQNGEYSLKSAVKLPNVLSVSPLFGLGASGNELNQVIEDLFLQVQKKLVICTPYFNFPRTLQHKIATLLENGKRVEIIVGDKVANDFYIPPEQPFKMAGALPYLYESNLRRFCEKFETQIESGQLVVRLWRDGDNTYHLKGVWVDDRYILLTGNNLNPRAWRLDAENGLLIYDPQQQLLAQVEKEQNQIRQHTKVLKHYTELEELNQYPEPVQKLLKKFARIKADKLVKMILAAALEHHHHHH”, the “soluble on expression in E. coli” value is listed as “soluble”.

Take “MKETDLAFFRSFKNRILKEINVMQLCRVVTVKGARADVQPMALKSDGGKRALILNALITKHCQSDISQGAVVVVVFCDRDIDNYRSSADYSLSSDRMHSQNDAVIMGVIA”: the “soluble on expression in E. coli” value was “not soluble”.

“MVEIVGHRAFKARYPENTLLAFEKAYAAGADVIETDLQMTSDGMVVVNHDSDTGRMWDKNLVIGESTWEEVKRLRCKEDGSLAMMTLKEILTWAVCHPGAKLMLDIKFTNEKIIMIKTFVIMLEVKNDLKFWQERITWGLWLLDWYDFGIETGVLKDFKVIVISLSLDIASQFVKRSLTLNDPHYKLFGISVHFVSSWTSQFRLRLLPVLMKNDIKVYLWTVNKPIDFKYLCELPIHGAITDDPIKARKLCDGHTVAKKPTAEKKFVAPSLASVDGLRFHAFIKVYNILCTLLYSKWVHIKLCGWSIAYVIFLFLRTIHFL”: the “soluble on expression in E. coli” value is given as “soluble”.

Consider “KKLNDFQEDAVNTILYSNKRKFLIHGVTGSGKTEIYMHLVKKMIEDNKQSIILVPEISLTPQMIERFKGRFGLNVAVFHSKLSDGERYDEWIRVKNGEVKVAVGARSALFLPFDKLGLIVIDEEHEGSYKSESDPKYNAIEVAEMKSAIEDCILVLGSATP”, for which the “soluble on expression in E. coli” value is “not soluble”.

As to “MLILSEQEIQRLYTMEEAISDVKEILRQKQAGNVNTPERTVLSFPHYDASILYMPSVKTGAAAVKVVSIFPHNPPLGKPTTQGVIILTDTKTEEHRMLCNATYLTRLRTGALSAIAADYLAKREASRLAVIGTGAMAREQVAGMLEVRGIEHIFLYNRTRSKAERFALEGW”, the “soluble on expression in E. coli” value is recorded as “not soluble”.

On to “MGGDMHEITLCQRALELIEQQAAKHGAKRVTGVWLKIGAFSCVETSSLAFCFDLVCRGSVAEGCKLHLEEQEAECWCETCQQYVTLLTQRVRRCPQCHGDMLQIVADDGLQIRRIEIDQE”, for which the “soluble on expression in E. coli” value is “not soluble”.
